According to US10533231B2, “Artificial bioluminescent enzyme” (NATIONAL INSTITUTE OF ADVANCED INDUSTRIAL SCIENCE AND …, priority 2012, dated 2020):

Columns and labels:
[1] = system: COS-7 cells; assay: Luminescence of ALuc25 to ALuc32 in lysate and medium (Example 1-18); type: cell-based; conditions: 20 hours after plasmid introduction
Method: After the insertion of a gene encoding an enzyme sequence as mentioned above into a mammalian expression vector (pcDNA3.1 (+)), each plasmid was introduced into COS-7 cells. By the transformation of these cells, each luciferase was expressed, and some of the luciferase was secreted out of the cells and some of the luciferase retained in the cells. 20 hours after the plasmid introduction, media of the cells were sampled, and the remaining cells were lysed with a lysis buffer (lysate preparation). Immediately after 50 μL of assay solution (containing a substrate) was simultaneously added to each prepared medium (5 μL) or lysate (5 μL), the luminescence value was measured using a luminescence analyzer (LAS-4000; FujiFilm) (n=3) (FIG. 18).

[2] = system: COS-7 cells; assay: Luminescence intensity of tag-containing ALucs secreted into medium (Example 1-21); type: cell-based; conditions: culturing one day, Promega kit with nCTZ
Method: To compare the luminescence intensity of novel luciferases, a comparison experiment was performed under the same conditions as Example 1-2 (COS-7 cells, culturing for one day, using an assay kit produced by Promega) (FIG. 21 (B)). Finally, the luminescence intensity of each luciferase secreted into the medium was compared using an assay kit (containing native coelenterazine (nCTZ)) produced by Promega.

[3] = Temporal change in luminescence after substrate injection, medium 25 days after expression (Example 1-19); type: biochemical
Method: 50 μL of an assay solution (containing native coelenterazine, produced by Promega) was added to 5 μL of each medium 25 days after the expression, and the luminescence value (enzymatic activity) was measured using an LAS-4000 (produced by FujiFilm).

[4] = system: COS-7 cells; assay: Enzymatic activity confirmation of ALuc (section 3-1, 3-2); type: cell-based, African monkey; conditions: vs conventional copepod luciferases
Method: First, using a known lipid reagent for gene introduction, an expression vector encoding ALuc is introduced into African monkey-derived COS-7 cells; as a control, an expression vector having a known GLuc without any mutation into the cells is also introduced in the same manner. At a predetermined time (from 10 to 20 hours, for example, 16 hours) after the introduction of the vector, a cell lysate is prepared using a known lysis reagent.
Thereafter, the cell lysate is mixed with a known substrate solution containing coelenterazine, and its color intensity, temporal stability in luminescence, etc., are measured.
The luminescence intensity may be found by measuring the intensity at a specific wavelength using a known luminescence spectrophotometer after addition of a known substrate. By performing the measurement every minute, the temporal stability in luminescence can be evaluated. To measure a shift to a longer wavelength, scanning of the entire wavelength is necessary.

[5] = Prolonged activity stability of ALucs secreted in medium (Example 1-19); type: physicochemical; conditions: Day 0 to Day 25
Method: The prolonged activity stability of the artificial luciferases (ALucs) developed in the present invention was examined. First, a plasmid expressing each artificial luciferase (ALuc16, ALuc22, ALuc23, ALuc24, ALuc25, and ALuc30) (in the figure, each is referred to as A16, A22, A23, A24, A25, and A30) was introduced into COS-7 cells, and then culturing was continued for 24 hours. By the culturing, each artificial luciferase was secreted into the medium. The artificial luciferase secreted in the medium was collected, and a difference in enzymatic activity was measured under the same conditions in the following manner. On the first day (Day 0), 50 μL of assay solution (containing native coelenterazine, produced by Promega) was added to 5 μL of each medium, and the luminescence value (enzymatic activity) was measured using an LAS-4000 (produced by FujiFilm). In the same manner, the luminescence value on Day 8, Day 16, and Day 25 was compared with the luminescence value on Day 0 (FIG. 19 (A)).

[6] = system: COS-7 cells; assay: Luminescence characteristics of tag-containing ALucs (Example 1-22); type: cell-based; conditions: medium two days after gene transfer
Method: To compare the relative luminescence intensity of these luciferases, the following experiment was conducted. First, a gene encoding each luciferase was subcloned into pcDNA3.1 (+), which is a eukaryotic expression vector, and each vector was introduced into COS-7 cells. Two days after gene transfer, the relative luminescence intensity of luciferase secreted into each medium was compared using a luminescence reagent produced by Promega.

Row | Molecule | luminescence from cell medium [1] | luminescence value from lysate [1] | luminescence intensity of luciferase secreted into the medium [2] | time of maximum luminescence value after infusion of coelenterazine ([3]; after long-term conservation (25 days)) [min] | temporal change of luminescence after substrate injection ([3]; medium 25 days after expression) | luminescence stability (general statement) [4] | prolonged enzymatic activity stability [5] | relative luminescence intensity [6]
1 | ALuc30: artificial luciferase containing a His tag, SEQ ID NO: 32 (protein, His tag; Synthetic Aluc30) MMGIKVLFALICFALVQANHHHHHHHHDIVGVEGKFGTTDLETDLFTIVEDMNVISRDTDVDANRADRGRRGKLPGKKLPLEVLKELEANAQKAGCTRGCLICLSHIKCTAKMKKWLPGRCESWEGDKETGQGGIGEAIVDIPEIPGFKELAPMEQFIAQVDLCADCTTGCLKGLANVKCSALLKKWLPSRCAGFADKIQAQVDTIKGAGGS | strong bioluminescence | extremely higher than those of conventional GLuc and MpLuc4 | relatively high luminescence intensity | 12 | several times higher | remarkably stable luminescence signals | maintained stable enzymatic activity until Day 25 | 
2 | ALuc34: artificial luciferase containing a Flag-tag, SEQ ID NO: 36 (protein, Flag tag; Synthetic Aluc34) MMGIKVLFALICFALVQANMMDYKDDDDKVGVEGKFGTTDLETDLFTIVEDMNVISRDTDVDANRADRGRRGKLPGKKLPLEVLKELEANAQKAGCTRGCLICLSHIKCTAKMKKWLPGRCESWEGDKETGQGGIGEAIVDIPEIPGFKELAPMEQFIAQVDLCADCTTGCLKGLANVKCSALLKKWLPSRCAGFADKIQAQVDTIKGAGGS |  |  | relatively high luminescence intensity |  |  | remarkably stable luminescence signals |  | relatively high luminescence intensity
3 | ALuc33: artificial luciferase containing an HA-tag, SEQ ID NO: 35 (protein, HA tag; Synthetic ALuc33) MMGIKVLFALICFALVQANMMYPYDVPDYAGVEGKFGTTDLETDLFTIVEDMNVISRDTDVDANRADRGRRGKLPGKKLPLEVLKELEANAQKAGCTRGCLICLSHIKCTAKMKKWLPGRCESWEGDKETGQGGIGEAIVDIPEIPGFKELAPMEQFIAQVDLCADCTTGCLKGLANVKCSALLKKWLPSRCAGFADKIQAQVDTIKGAGGS |  |  | relatively high luminescence intensity |  |  | remarkably stable luminescence signals |  | relatively high luminescence intensity
